Columns and labels:
[1] = Porphyrin binding to apo-protein, electronic absorption spectra ((CF3)4PZn loading)
Experimental: (§1) FIGS. 3A-3D. Biophysical characterization of apo- and holo-PS1. FIG. 3A: Electronic absorption and emission spectra of (CF3)4PZn/PS1 holo-protein and (CF3)4PZn in toluene solvent. […] FIG. 3B: Determination of KD by apo-PS1 titration into a buffer solution (100 mM NaCl, 50 mM NaPi, pH 7.5) of (CF3)4PZn with 1% w/v octyl-b-D-glucopyranoside. […] FIG. 3C: Circular dichroism (CD) spectra of apo- and holo-PS1 in 50 mM NaPi, 100 mM NaCl, pH 7.5 as a function of temperature. The transitions appear reversible based on the fact that the spectra are identical after cooling to room temperature. Units are in molar residue ellipticity. […] FIG. 3D: Pump-probe transient absorption spectra of (CF3)4PZn bound in the interior of holo-PS1 at 21° C. and 100° C. […] Inset exemplifies identical transient dynamics (primarily intersystem crossing from S1 to T1) at ΔAbs.=482 nm (scaled). Experimental conditions: solvent=50 mM NaPi, 100 mM NaCl, pH 7.5; excitation wavelength=600±5 nm; magic-angle polarization between pump and probe pulses; pump-probe cross-correlation of ˜250 fs.
FIG. 10. Absorption spectra of (CF3)4PZn/PS1 and (CF3)4PZn/PS2 complexes. […] Experimental conditions: buffer=100 mM NaCl, 50 mM NaPi, pH 7.5.
A 2-fold excess of the cofactor (CF3)4PZn was added from a 4 mM DMSO stock solution to a 50 mM NaPi, 100 mM NaCl, pH 7.5 buffer with apo-protein (Note that final DMSO concentrations were kept <1%.). Buffer solution of apo-PS1 protein was heated for 5 minutes at 50° C., (CF3)4PZn was then added from the DMSO stock solution, the resultant mixture was vortexed for 5 seconds, and placed back in the heat block at 50° C. for 15 minutes, with vortexing every 3 minutes. The protein/cofactor solution was then spun at 14000×g in a Amicon Ultra-0.5 mL centrifuge filter for 10 min, three times, replacing the buffer to 0.5 mL after each 10 min spin. Finally, the protein solution was spun for 4 min at 12000×g in an Amicon ultrafree-MC GV filter (UFC30GV0S). The holo-PS1 sample was then used for spectroscopic experiments immediately afterward, and diluted to an appropriate concentration if necessary. Binding of (CF3)4PFe was carried out in the same fashion, with the exception that the porphyrin was first dissolved in a stock of DMSO/CHCl3.
Electronic absorption spectra were collected using a Shimadzu UV-1700 UV-Vis spectrophotometer or Cary 5000 spectrophotometer. Steady-state emission spectra were obtained on FLS920P spectrophotometer (Edinburgh Instruments Ltd. Livingston, UK) in 1 cm quartz optical cells. The steady-state emission spectra were corrected using the correction factor generated by the manufacturer.

[2] = Circular dichroism: temperature and GnHCl induced unfolding; assay type: physicochemical; conditions: at 95° C.; CD at 222 nm; 50 mM NaPi, 100 mM NaCl, pH 7.5
Experimental: as §1
FIG. 8. Temperature and GnHCl induced unfolding of apo-PS1. CD spectra at 222 nm of apo-PS1 as a function of temperature and denaturant (Guanidine HCl, GnHCl) concentration in 50 mM NaPi, 100 mM NaCl, pH 7.5 buffer. The midpoint for GnHCl-induced unfolding at 95° C. was approximately 4.5 M. […]

[3] = Hydrogen-deuterium exchange measurements by 2D 15N HSQC NMR; assay type: physicochemical
Experimental: FIGS. 5A-5F. Apo- and holo-PS1 share similar folded cores and differ in the binding region. FIG. 5A: 2D ^1H-^15N HSQC spectra acquired for apo- and holo-PS1. Experimental conditions: 0.78 mM at 298K, 50 mM NaPi, 100 mM NaCl, pH 7.5, in 5% D2O. Resonance assignments are indicated using the one-letter amino acid code. Signals arising from side chains (Asn HD2/ND2, Gln HE2/NE2, Arg HE/NE and Trp HE1/NE1) are also labeled. The residues belonging to the binding region and folded core are color-coded as in (FIG. 5B). Non-helical residues are labeled in cyan font face. […] A dashed box surrounds 90% of the backbone resonances of apo-PS1 and is also placed at the same position in the holo-PS1 spectrum. Arrows point to resonances of residues within the binding region that change dramatically upon binding of the cofactor. FIG. 5B: Solution NMR structures of apo-PS1 and holo-PS1. […] FIG. 5C: Hydrogen-deuterium exchange protection factors (PF) measured for apo- and holo-PS1, mapped onto the centroid structure of holo-PS1. Backbone amide nitrogens of residues with determined PFs are shown as spheres. […]
For the measurements of H/D exchange rates, a series of 2D ^15N HSQC spectra were obtained on a 900 MHz Bruker Avance II spectrometer. The first spectra were recorded 9 minutes after the dilution of 100 μl of a high concentration sample in H2O (2 mM for apo and 1.2 mM for holo) into 200 μl D2O buffer. […]

B1: PS1: de novo designed porphyrin-binding four-helix bundle protein; designed sequence SEQ ID NO:1, expressed His-tag-cleaved sequence SEQ ID NO:2 (protein)
chain: SEFEKLRQTGDELVQAFQRLREIFDKGDDDSLEQVLEEIEELIQKHRQLFDNRQEAADTEAAKQGDQWVQLFQRFREAIDKGDKDSLEQLLEELEQALQKIRELAEKKN
porphyrin loading ([1]; (CF3)4PZn, based on absorbance at 280 nm and 423 nm, 100 mM NaCl, 50 mM NaPi, pH 7.5): 100%
time of complex formation ([1]; adding (CF3)4PZn from organic solution to aqueous PS1): within seconds
stability of the (CF3)4PZn complex over time ([1]; complex with (CF3)4PZn): stable for over a year
midpoint for GnHCl-induced unfolding [2]: approximately 4.5 M
protection of the backbone surrounding the apolar core from solvent H/D exchange [3]: highly protected from exchange

Source: patent US20200234789A1, “DESIGNED PROTEINS FOR LIGAND BINDING” (THE REGENTS OF THE UNIVERSITY OF CALIFORNIA, priority 2017, published 2020)
